{
  "source": "paper PMC8611064",
  "about": "“Structure of the class C orphan GPCR GPR158 in complex with RGS7-Gβ5” (Nature Communications, 2021)",
  "molecules": {"B1": {"name": "GPR158 (residues 1–863) (receptor, human, UniProt Q5T848 24-863, looked up)", "chain": "ASRDPQGRPDSPRERTPKGKPHAQQPGRASASDSSAPWSRSTDGTILAQKLAEEVPMDVASYLYTGDSHQLKRANCSGRYELAGLPGKWPALASAHPSLHRALDTLTHATNFLNVMLQSNKSREQNLQDDLDWYQALVWSLLEGEPSISRAAITFSTDSLSAPAPQVFLQATREESRILLQDLSSSAPHLANATLETEWFHGLRRKWRPHLHRRGPNQGPRGLGHSWRRKDGLGGDKSHFKWSPPYLECENGSYKPGWLVTLSSAIYGLQPNLVPEFRGVMKVDINLQKVDIDQCSSDGWFSGTHKCHLNNSECMPIKGLGFVLGAYECICKAGFYHPGVLPVNNFRRRGPDQHISGSTKDVSEEAYVCLPCREGCPFCADDSPCFVQEDKYLRLAIISFQALCMLLDFVSMLVVYHFRKAKSIRASGLILLETILFGSLLLYFPVVILYFEPSTFRCILLRWARLLGFATVYGTVTLKLHRVLKVFLSRTAQRIPYMTGGRVMRMLAVILLVVFWFLIGWTSSVCQNLEKQISLIGQGKTSDHLIFNMCLIDRWDYMTAVAEFLFLLWGVYLCYAVRTVPSAFHEPRYMAVAVHNELIISAIFHTIRFVLASRLQSDWMLMLYFAHTHLTVTVTIGLLLIPKFSHSSNNPRDDIATEAYEDELDMGRSGSYLNSSINSAWSEHSLDPEDIRDELKKLYAQLEIYKRKKMITNNPHLQKKRCSKKGLGRSIMRRITEIPETVSRQCSKEDKEGADHGTAKGTALIRKNPPESSGNTGKSKEETLKNRVFSLKKSHSTYDHVRDQTEESSSLPTESQEEETTENSTLESLSGKKLTQKLKE", "notes": "signal peptide in the construct; human GPR158 residues 1-863, followed by a PreScission protease site, GFP and a Twin-Strep II tag; No PreScission cleavage is told for the purification of the complex"}},
  "key": {"[1]": {"biological_target": "apo GPR158 (human) (UniProt Q5T848)", "experiment": "cryo-EM structure; apo GPR158 in 20 mM HEPES pH 7.5, 200 mM NaCl, 0.01% LMNG, 0.001% CHS, 5 mM EDTA, with 0.1% OG added; 12.7 mg/ml"}, "[2]": {"biological_target": "GPR158 (residues 1–863) (human) (UniProt Q5T848)", "experiment": "cryo-EM structure; GPR158 (1-863), RGS7-Flag and Gβ5 co-expressed, co-purified by anti-Flag resin and Superose 6 in LMNG/CHS, treated with 0.1% OG; 2:1:1 and 2:2:2 complexes sorted from one sample"}, "[3]": {"biological_target": "the molecule itself", "experiment": "cryo-EM structure; GPR158 (1-863), RGS7-Flag and Gβ5 co-expressed, co-purified by anti-Flag resin and Superose 6 in LMNG/CHS, treated with 0.1% OG; 2:1:1 and 2:2:2 complexes sorted from one sample"}},
  "data": [
    {"molecule": "apo GPR158 (from UniProt Q5T848 24-710) (receptor)", "values": [
      {"measurement": "stoichiometry N", "setting": "[1]", "result": 2, "unit": "protomers"}
    ]},
    {"molecule": "RGS7–Gβ5 heterodimer (from UniProt P49802 1-495; O14775 1-395) (complex)", "values": [
      {"measurement": "stoichiometry N (RGS7–Gβ5 heterodimer per GPR158 dimer)", "setting": "[2]", "result": 1},
      {"measurement": "stoichiometry N (RGS7–Gβ5 heterodimers per GPR158 dimer)", "setting": "[2]", "result": 2}
    ]},
    {"molecule": "B1", "values": [
      {"measurement": "stoichiometry N", "setting": "[3]", "result": 2, "unit": "protomers"}
    ]}
  ]
}
